The values below come from article PMC3936261 (Oncogene, 2013).

Read-outs that look alike come from different tables or passages of the source.

As a reminder, the Kd is the concentration at which binding is half-saturated. A high value points to a looser complex.

Holding throughout (assay): other fluorescence titration
Assay [1] deals with T1, PTEN protein labeled with QSY 35 (UniProt P60484 1-403, QSY 35 (label as for the MKP proteins)).
For assay [2], the target named is T1, PTEN protein labeled with QSY 35. The source holds these as a separate data set.
Assay [3] has the same target. The source holds these as a separate data set.

T1 sequence (P60484 whole entry): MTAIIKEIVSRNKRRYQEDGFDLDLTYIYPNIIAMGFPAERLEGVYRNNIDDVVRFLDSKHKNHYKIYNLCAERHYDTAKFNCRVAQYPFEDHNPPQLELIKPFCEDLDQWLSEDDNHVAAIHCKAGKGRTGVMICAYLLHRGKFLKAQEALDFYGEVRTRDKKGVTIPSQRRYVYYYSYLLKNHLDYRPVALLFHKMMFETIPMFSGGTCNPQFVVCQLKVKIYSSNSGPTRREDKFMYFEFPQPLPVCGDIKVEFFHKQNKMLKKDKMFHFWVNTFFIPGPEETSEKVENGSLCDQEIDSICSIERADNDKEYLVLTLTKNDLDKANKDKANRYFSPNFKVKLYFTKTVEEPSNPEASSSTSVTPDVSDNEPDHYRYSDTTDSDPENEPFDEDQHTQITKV

B1: Prdx1 protein labeled with Alexa Fluor 546 (enzyme, UniProt Q06830 1-199, looked up)
chain: MSSGNAKIGHPAPNFKATAVMPDGQFKDISLSDYKGKYVVFFFYPLDFTFVCPTEIIAFSDRAEEFKKLNCQVIGASVDSHFCHLAWVNTPKKQGGLGPMNIPLVSDPKRTIAQDYGVLKADEGISFRGLFIIDDKGILRQITVNDLPVGRSVDETLRLVQAFQFTDKHGEVCPAGWKPGSDTIKPDVQKSKEYFSKQK
modifications: Alexa Fluor 546 on primary amines (succinimidylester of Alexa Fluor 546 carboxylic acid)
Regarding B1, the Kd in assay [1] stood at 215 ± 19.5 nM; in assay [2] it was 247 nM; in assay [3] it was 220 ± 22.5 nM.
